The target of test [1] is RANK peptide (Sino Biological), receptor activator of nuclear factor κ B (UniProt Q9Y6Q6). The test is described as follows: SPR; RANK or RAGE (5 μg/ml in 10 mM sodium acetate, pH 5.5) immobilised on the sensor chip; AOPPs 350 to 1050 μg/ml injected, 1050 μg/ml RSA as vehicle; 25 °C, 30 μl/min; PlexArray HT A100. For orientation: Surface plasmon resonance follows binding to a sensor surface in real time, without labels.

For test [2], the target named is RAGE peptide (Sino Biological), receptor for advanced glycation end products (UniProt Q15109). The description is as above.
Sequence of UniProt Q15109 (Q15109 23-342): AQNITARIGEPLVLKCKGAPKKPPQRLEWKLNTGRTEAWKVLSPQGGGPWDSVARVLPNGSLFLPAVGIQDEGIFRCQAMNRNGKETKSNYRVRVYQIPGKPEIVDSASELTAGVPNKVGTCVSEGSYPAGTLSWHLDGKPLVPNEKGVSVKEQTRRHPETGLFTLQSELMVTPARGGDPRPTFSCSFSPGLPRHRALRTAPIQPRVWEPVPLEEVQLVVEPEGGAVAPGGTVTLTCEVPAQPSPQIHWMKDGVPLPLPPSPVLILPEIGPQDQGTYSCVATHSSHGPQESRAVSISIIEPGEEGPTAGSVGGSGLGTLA

Sequence of UniProt Q9Y6Q6 (Q9Y6Q6 30-212): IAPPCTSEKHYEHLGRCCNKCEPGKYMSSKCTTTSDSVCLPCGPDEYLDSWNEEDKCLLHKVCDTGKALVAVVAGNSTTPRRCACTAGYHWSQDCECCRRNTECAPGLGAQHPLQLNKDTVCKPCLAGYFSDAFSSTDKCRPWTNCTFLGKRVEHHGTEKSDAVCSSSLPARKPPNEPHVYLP

What is called Kd is the constant that tells how readily two partners part at equilibrium. Turning to “Advanced oxidation protein products (AOPPs), prepared from rat serum albumin with hypochlorous acid (from UniProt P02770 25-608)”, the values for the Kd in test [1] and in test [2] were 3020 nM and 1340 nM, respectively.

For the origin of these results see PMC8671415.
